Assay results taken from patent US20180155451A1 (published 2018).

T1: FcγRIIb extracellular domain with C-terminal His tag (human, UniProt P31994 43-217)
T1 construct: extracellular domain; Soluble receptor expressed in FreeStyle293 cells and used as analyte in Biacore; also called FcgRIIb; 2b; not shown: His tag at the C terminus
T1 sequence (looked up): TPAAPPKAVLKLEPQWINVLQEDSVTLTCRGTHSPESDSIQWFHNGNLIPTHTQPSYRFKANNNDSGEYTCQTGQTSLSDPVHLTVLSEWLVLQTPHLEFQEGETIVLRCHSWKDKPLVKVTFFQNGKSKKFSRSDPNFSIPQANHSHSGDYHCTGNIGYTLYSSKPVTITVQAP

T2: FcγRIIa H (human, UniProt P12318 34-217)
T2 construct: extracellular domain; Soluble His-tagged extracellular domain expressed in FreeStyle293 cells; also called FcγRIIa type H; FcgRIIa H; not shown: His tag attached to the C terminus
T2 sequence (looked up): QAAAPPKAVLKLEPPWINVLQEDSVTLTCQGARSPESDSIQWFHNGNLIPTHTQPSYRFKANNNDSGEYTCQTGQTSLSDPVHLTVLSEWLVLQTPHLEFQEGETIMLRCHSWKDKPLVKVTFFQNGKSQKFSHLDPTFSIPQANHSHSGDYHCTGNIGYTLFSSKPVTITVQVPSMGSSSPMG

T3: FcγRIIb (human, UniProt P31994 43-217)
T3 construct: extracellular domain; Soluble His-tagged extracellular domain expressed in FreeStyle293 cells; also called FcgRIIb; 2b; not shown: His tag attached to the C terminus
T3 sequence (looked up): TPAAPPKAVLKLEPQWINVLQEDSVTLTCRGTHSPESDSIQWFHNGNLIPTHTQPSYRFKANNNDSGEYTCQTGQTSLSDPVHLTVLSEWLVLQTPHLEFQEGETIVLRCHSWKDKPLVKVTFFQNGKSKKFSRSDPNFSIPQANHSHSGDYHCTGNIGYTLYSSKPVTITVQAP


Experiments:
[1] = target: T4, FcγRIa extracellular domain with C-terminal His tag (human, UniProt P12314 16-292); experiment: SPR Biacore, relative binding amount
T4 construct: extracellular domain; Soluble receptor expressed in FreeStyle293 cells and used as analyte in Biacore; also called FcgRI; 1a; not shown: His tag at the C terminus

[2] = target: T1, FcγRIIb extracellular domain with …; experiment: SPR Biacore, relative binding amount
[3] = target: T4, FcγRIa extracellular domain with …; experiment: SPR Biacore; relative binding to FcγRIa divided by that to FcγRIIb
FcγRIIa H [4] = target: T2, FcγRIIa H; experiment: SPR (Biacore); He/Con_2aH divided by He/Con_2b (FcγRIIb) of the same antibody
FcγRIIa H [5] = target: T2, FcγRIIa H; experiment: SPR (Biacore), captured antibody, FcγR analyte; relative to GpH7-A5/GpH7-B3/GpL16-k0 = 100
Description: (§1) The heterodimerized antibodies He Abs in which one of the H chains was introduced with an alteration were assayed for their binding activities to each activating FcγR and inhibitory FcγR according to the method described in Example 4. […] The activating FcγRs in FIGS. 26, 27, 28, and 29 are FcγRIa, FcγRIIa (R), FcγRIIa (H), and FcγRIIIa, respectively.
(§2) Analysis of interaction between objective antibody and the FcγR was carried out using Biacore T100 (GE Healthcare). HBS-EP+ (GE Healthcare) was used as the running buffer, and the measurement temperature was set to 25° C. Chips produced by immobilizing the antigen peptide by the amine coupling method to a Series S Sencor Chip CM5 (GE Healthcare), or alternatively, chips produced by allowing preliminarily biotinylated antigen peptides to interact with and immobilize onto a Series S Sensor Chip SA (certified) (GE Healthcare) were used. Antibodies of interest were captured onto an antigen peptide-immobilized chip, and allowed to interact to each FcγR diluted with running buffer. To regenerate and repeatedly use the chip, the antibodies captured on the chip were washed off by reacting 10 mM glycine-HCl, pH 1.5.

FcγRIIb = target: T3, FcγRIIb; experiment: as above
Description: as §1, §2

T4 sequence (P12314 16-292): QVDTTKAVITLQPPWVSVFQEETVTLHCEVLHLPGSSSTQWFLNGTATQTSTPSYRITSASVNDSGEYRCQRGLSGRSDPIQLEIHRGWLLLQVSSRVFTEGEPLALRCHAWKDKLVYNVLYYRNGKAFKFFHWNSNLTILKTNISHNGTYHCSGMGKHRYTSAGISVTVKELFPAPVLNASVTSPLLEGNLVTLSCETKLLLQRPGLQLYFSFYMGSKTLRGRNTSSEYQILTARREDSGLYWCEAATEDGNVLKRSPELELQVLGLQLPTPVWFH

Row | Binder | He/Con_1a [1] | He/Con_2b [2] | Ia/IIb He_1a/2b [3] | He_2aH/2b (FcγRIIa H [4]) | He/Con_2aH (FcγRIIa H [5]) | He/Con_2b (FcγRIIb)
1 | heterodimerized antibody GpH7-A5/GpH7-B3 variant Y296_01G/GpL16-k0 (antibody, human IgG1, kappa, Substitution in only one H chain (GpH7-B3 side); also called He Ab) heavy 1: not shown heavy 2: not shown light: DIVMTQSPLSLPVTPGEPASISCQASESLVHSNRNTYLHWYLQKPGQSPQLLIYKVSNRFSGVPDRFSGSGSGTDFTLKISRVEAEDVGVYYCSQNTHVPPTFGQGTKVEIERTVAAPSVFIFPPSDEQLKSGTASVVCLLNNFYPREAKVQWKVDNALQSGNSQESVTEQDSKDSTYSLSSTLTLSKADYEKHKVYACEVTHQGLSSPVTKSFNRGEC | 103 % of GpH7-A5/GpH7-B3/GpL16-k0 (=100) | 79.3 % of GpH7-A5/GpH7-B3/GpL16-k0 (=100) | 1.29 ratio of He/Con_1a to He/Con_2b | – | – | –
2 | GpH7-A5/GpH7-B3 variant N325_09D/GpL16-k0 (antibody, human IgG1, kappa, Heterodimerized anti-glypican-3 IgG1; mutation in the GpH7-B3 H chain only; also called He Ab) heavy 1: not shown heavy 2: not shown light: DIVMTQSPLSLPVTPGEPASISCQASESLVHSNRNTYLHWYLQKPGQSPQLLIYKVSNRFSGVPDRFSGSGSGTDFTLKISRVEAEDVGVYYCSQNTHVPPTFGQGTKVEIERTVAAPSVFIFPPSDEQLKSGTASVVCLLNNFYPREAKVQWKVDNALQSGNSQESVTEQDSKDSTYSLSSTLTLSKADYEKHKVYACEVTHQGLSSPVTKSFNRGEC | – | – | – | 0.43 ratio | 53.1 relative (control = 100) | 124 relative (control = 100)
3 | heterodimerized antibody GpH7-A5/GpH7-B3 variant Q295_16H/GpL16-k0 (antibody, human IgG1, kappa, Substitution in only one H chain (GpH7-B3 side); also called He Ab) heavy 1: not shown heavy 2: not shown light: DIVMTQSPLSLPVTPGEPASISCQASESLVHSNRNTYLHWYLQKPGQSPQLLIYKVSNRFSGVPDRFSGSGSGTDFTLKISRVEAEDVGVYYCSQNTHVPPTFGQGTKVEIERTVAAPSVFIFPPSDEQLKSGTASVVCLLNNFYPREAKVQWKVDNALQSGNSQESVTEQDSKDSTYSLSSTLTLSKADYEKHKVYACEVTHQGLSSPVTKSFNRGEC | 102 % of GpH7-A5/GpH7-B3/GpL16-k0 (=100) | 62.7 % of GpH7-A5/GpH7-B3/GpL16-k0 (=100) | 1.64 ratio of He/Con_1a to He/Con_2b | – | – | –
4 | heterodimerized antibody GpH7-A5/GpH7-B3 variant S298_02A/GpL16-k0 (antibody, human IgG1, kappa, Substitution in only one H chain (GpH7-B3 side); also called He Ab) heavy 1: not shown heavy 2: not shown light: DIVMTQSPLSLPVTPGEPASISCQASESLVHSNRNTYLHWYLQKPGQSPQLLIYKVSNRFSGVPDRFSGSGSGTDFTLKISRVEAEDVGVYYCSQNTHVPPTFGQGTKVEIERTVAAPSVFIFPPSDEQLKSGTASVVCLLNNFYPREAKVQWKVDNALQSGNSQESVTEQDSKDSTYSLSSTLTLSKADYEKHKVYACEVTHQGLSSPVTKSFNRGEC | 107 % of GpH7-A5/GpH7-B3/GpL16-k0 (=100) | 73.4 % of GpH7-A5/GpH7-B3/GpL16-k0 (=100) | 1.45 ratio of He/Con_1a to He/Con_2b | – | – | –

Results, then the binder that gave them:

Row | He/Con_1a [1] | He/Con_2b [2] | Ia/IIb He_1a/2b [3] | He_2aH/2b (FcγRIIa H [4]) | He/Con_2aH (FcγRIIa H [5]) | He/Con_2b (FcγRIIb) | Binder
5 | 109 % of GpH7-A5/GpH7-B3/GpL16-k0 (=100) | 65.4 % of GpH7-A5/GpH7-B3/GpL16-k0 (=100) | 1.67 ratio of He/Con_1a to He/Con_2b | – | – | – | heterodimerized antibody GpH7-A5/GpH7-B3 variant S298_04F/GpL16-k0 (antibody, human IgG1, kappa, Substitution in only one H chain (GpH7-B3 side); also called He Ab) heavy 1: not shown heavy 2: not shown light: DIVMTQSPLSLPVTPGEPASISCQASESLVHSNRNTYLHWYLQKPGQSPQLLIYKVSNRFSGVPDRFSGSGSGTDFTLKISRVEAEDVGVYYCSQNTHVPPTFGQGTKVEIERTVAAPSVFIFPPSDEQLKSGTASVVCLLNNFYPREAKVQWKVDNALQSGNSQESVTEQDSKDSTYSLSSTLTLSKADYEKHKVYACEVTHQGLSSPVTKSFNRGEC
6 | 91.6 % of GpH7-A5/GpH7-B3/GpL16-k0 (=100) | 11.9 % of GpH7-A5/GpH7-B3/GpL16-k0 (=100) | 7.7 ratio of He/Con_1a to He/Con_2b | – | – | – | heterodimerized antibody GpH7-A5/GpH7-B3 variant S298_05P/GpL16-k0 (antibody, human IgG1, kappa, Substitution in only one H chain (GpH7-B3 side); also called He Ab) heavy 1: not shown heavy 2: not shown light: DIVMTQSPLSLPVTPGEPASISCQASESLVHSNRNTYLHWYLQKPGQSPQLLIYKVSNRFSGVPDRFSGSGSGTDFTLKISRVEAEDVGVYYCSQNTHVPPTFGQGTKVEIERTVAAPSVFIFPPSDEQLKSGTASVVCLLNNFYPREAKVQWKVDNALQSGNSQESVTEQDSKDSTYSLSSTLTLSKADYEKHKVYACEVTHQGLSSPVTKSFNRGEC
7 | 103 % of GpH7-A5/GpH7-B3/GpL16-k0 (=100) | 82 % of GpH7-A5/GpH7-B3/GpL16-k0 (=100) | 1.26 ratio of He/Con_1a to He/Con_2b | – | – | – | heterodimerized antibody GpH7-A5/GpH7-B3 variant Y296_02A/GpL16-k0 (antibody, human IgG1, kappa, Substitution in only one H chain (GpH7-B3 side); also called He Ab) heavy 1: not shown heavy 2: not shown light: DIVMTQSPLSLPVTPGEPASISCQASESLVHSNRNTYLHWYLQKPGQSPQLLIYKVSNRFSGVPDRFSGSGSGTDFTLKISRVEAEDVGVYYCSQNTHVPPTFGQGTKVEIERTVAAPSVFIFPPSDEQLKSGTASVVCLLNNFYPREAKVQWKVDNALQSGNSQESVTEQDSKDSTYSLSSTLTLSKADYEKHKVYACEVTHQGLSSPVTKSFNRGEC
